These results are taken from patent US20240132625A1 (KOREA ADVANCED INSTITUTE OF SCIENCE AND TECHNOLOGY, published 2024).

Data set [1] has as its target Receptor-binding domain of the SARS-CoV-2 spike protein (biotinylated, Acrobio system) (SARS-CoV-2, UniProt P0DTC2 319-541). Put plainly: BLI.
Data set [2] concerns the molecule itself. The data set is described as follows: homodimerisation; method not stated (FIG. 2).

B1: CV30 (antibody, V domains shown)
VH: EVQLVESGGGLIQPGGSLRLSCAASGVIVSSNYMSWVRQAPGKGLEWVSVIYSGGSTYYADSVKGRFTISRDNSKNTLYLQMNSLRAEDTAVYYCARDLDVSGGMDVWGQGTTVTVSS
VL: not shown
B1 displayed a dissociation constant Kd in data set [1] of at most 0.01 nM.

B2: homodimeric coiled-coil (HomoCC) (designed binder)
chain: DEEQRKVVEEDLKVLEHLRRVVERKEHLVRDAYEETFDDQQREVVREKLKVLEHLEKVIERDRHLSSRPGL
For the molecule B2, the Kd in data set [2] was 7.6 µM.
